Positions of bridges follow the written chain, without caps; N, C: chain ends. No end group written: not given here.
Key:
[1] = target: T1, Prostate-specific antigen (PSA or kallikrein-related peptidase-3, KLK3), major form of active PSA (isoform … (human, UniProt P07288 25-261)); assay: SPR; Biacore T100; PSA amine-coupled to a CM5 chip (2000-3900 RU); alpha-chymotrypsin surface as reference, subtracted; peptides 1.2-600 uM flowed in PBS pH 7.4 (6.7 mM PO4, 0.15 M NaCl), 40 ul/min, 25 C, contact 60 s, dissociation 180 s; Steady State Affinity model; conditions: both partners purified
T1 construct: prostate-specific antigen (PSA, kallikrein-related peptidase-3, KLK3), human, 28 kDa serine protease; the major enzymatically active form (isoform PSA-B) isolated from seminal fluid; Amine-coupled to a CM5 chip for SPR

[2] = target: T1, Prostate-specific antigen (PSA or …); assay: cell-based or functional assay

T1 sequence (P07288 25-261): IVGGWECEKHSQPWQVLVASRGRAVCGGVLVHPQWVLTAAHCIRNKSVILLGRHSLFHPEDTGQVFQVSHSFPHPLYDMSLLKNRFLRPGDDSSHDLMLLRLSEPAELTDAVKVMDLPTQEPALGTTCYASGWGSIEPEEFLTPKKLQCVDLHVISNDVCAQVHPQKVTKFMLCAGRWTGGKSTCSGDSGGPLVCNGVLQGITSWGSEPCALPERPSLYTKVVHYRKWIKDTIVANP

Binder	Kd [1]	[peptide]2V: peptide concentration with two-fold stimulation of PSA activity, chromogenic substrate S-2586 [2]	[peptide]2V: peptide concentration with two-fold stimulation of PSA activity, fluorogenic substrate 4-morpholinecarbonyl-HSSKLQ-AMC [2]
CVFAHNYDYLVC-NH2 (disulfide 1-12; N-terminus assumed; SMILES CC(C)C[C@@H]1NC(=O)[C@H](Cc2ccc(O)cc2)NC(=O)[C@H](CC(=O)O)NC(=O)[C@H](Cc2ccc(O)cc2)NC(=O)[C@H](CC(N)=O)NC(=O)[C@H](Cc2c[nH]cn2)NC(=O)[C@H](C)NC(=O)[C@H](Cc2ccccc2)NC(=O)[C@H](C(C)C)NC(=O)[C@@H](N)CSSC[C@@H](C(N)=O)NC(=O)[C@H](C(C)C)NC1=O, cyclic; purity over 95% by HPLC; source: synthetic peptide, bought as custom peptide (AnaSpec, NeoMPS, Biomatik or GenScript)) [12-amino acid cyclic peptide B2 with C-terminal amidation (B2-NH2)]	56.5 µM	3.33 µM	2.94 µM
CVFAHNYDYLVC-OH (disulfide 1-12; N-terminus assumed; SMILES CC(C)C[C@@H]1NC(=O)[C@H](Cc2ccc(O)cc2)NC(=O)[C@H](CC(=O)O)NC(=O)[C@H](Cc2ccc(O)cc2)NC(=O)[C@H](CC(N)=O)NC(=O)[C@H](Cc2c[nH]cn2)NC(=O)[C@H](C)NC(=O)[C@H](Cc2ccccc2)NC(=O)[C@H](C(C)C)NC(=O)[C@@H](N)CSSC[C@@H](C(=O)O)NC(=O)[C@H](C(C)C)NC1=O, cyclic; purity over 95% by HPLC; source: synthetic peptide, bought as custom peptide (AnaSpec, NeoMPS, Biomatik or GenScript)) [12-amino acid cyclic peptide B2 (without C-terminal amidation)]	73.6 µM		
CVAYCIEHHCWTC (disulfide 1-13, 5-10) [13-amino acid double cyclic peptide C4]		1.55 µM	1.36 µM
